From patent publication US20060014212A1
Values belong to the binder of their own block, whether it stands above or below them. Where no end group is shown, it is not given here.

Tests used:
[1] = molecular target: anti-A005 antibody (ERK1 PET); test: peptide competition assay in 6% BSA
[2] = molecular target: anti-A002 antibody (TGFbeta1 PET); test: peptide competition assay in 6% BSA
[3] = molecular target: anti-A003 antibody (TGFbeta1 PET); test: peptide competition assay in 6% BSA
[4] = molecular target: anti-A044 antibody (Fibronectin PET); test: peptide competition assay in 6% BSA
[5] = molecular target: anti-A008 antibody (ERK2 PET); test: peptide competition assay in 6% BSA
[6] = molecular target: anti-A022 antibody (PSA PET); test: peptide competition assay in 6% BSA
[7] = molecular target: anti-A020 antibody (Troponin I PET); test: peptide competition assay in 6% BSA
[8] = molecular target: anti-A006 antibody (pERK1 PET); test: peptide competition assay in 6% BSA
[9] = molecular target: anti-A011 antibody (MEK1 PET); test: peptide competition assay in 6% BSA
[10] = molecular target: anti-A007 antibody (ERK2 PET); test: peptide competition assay in 6% BSA
[11] = molecular target: anti-A031 antibody (C3 PET); test: peptide competition assay in 6% BSA
[12] = molecular target: anti-A023 antibody (PSA PET); test: peptide competition assay in 6% BSA
[13] = molecular target: anti-A009 antibody (pERK2 PET); test: peptide competition assay in 6% BSA
[14] = molecular target: anti-A016 antibody (Thyroglobulin PET); test: peptide competition assay in 6% BSA
[15] = molecular target: anti-A046 antibody (Fibronectin PET); test: peptide competition assay in 6% BSA
[16] = molecular target: anti-A028 antibody (IL-1beta PET); test: peptide competition assay in 6% BSA
[17] = molecular target: anti-A027 antibody (IL-1beta PET); test: peptide competition assay in 6% BSA
[18] = molecular target: anti-A012 antibody (Thyroglobulin PET); test: peptide competition assay in 6% BSA
[19] = molecular target: anti-A013 antibody (Thyroglobulin PET); test: peptide competition assay in 6% BSA
[20] = molecular target: anti-A047 antibody (Fibronectin PET); test: peptide competition assay in 6% BSA
[21] = molecular target: antibody C1; test: peptide competition ELISA: soluble peptide against immobilized target peptide for antibody C1
[22] = molecular target: anti-A017 antibody (Troponin I PET); test: peptide competition assay in 6% BSA
[23] = molecular target: anti-A015 antibody (Thyroglobulin PET); test: peptide competition assay in 6% BSA
[24] = molecular target: anti-A010 antibody (MEK1 PET); test: peptide competition assay in 6% BSA
[25] = molecular target: anti-A014 antibody (Thyroglobulin PET); test: peptide competition assay in 6% BSA
[26] = molecular target: anti-A043 antibody (CRP PET); test: peptide competition assay in 6% BSA
[27] = molecular target: anti-A026 antibody (IL-1beta PET); test: peptide competition assay in 6% BSA
[28] = molecular target: anti-A024 antibody (IL-1beta PET); test: peptide competition assay in 6% BSA
[29] = molecular target: anti-A001 antibody (TGFbeta1 PET); test: peptide competition assay in 6% BSA
[30] = molecular target: anti-A037 antibody (C9 PET); test: peptide competition assay in 6% BSA
[31] = molecular target: anti-A049 antibody (FactorXII PET); test: peptide competition assay in 6% BSA
[32] = molecular target: anti-A039 antibody (C9 PET); test: peptide competition assay in 6% BSA
[33] = molecular target: anti-A034 antibody (C4 PET); test: peptide competition assay in 6% BSA
[34] = molecular target: anti-A021 antibody (PSA PET); test: peptide competition assay in 6% BSA
[35] = molecular target: anti-A045 antibody (Fibronectin PET); test: peptide competition assay in 6% BSA
[36] = molecular target: anti-A025 antibody (IL-1beta PET); test: peptide competition assay in 6% BSA
[37] = molecular target: anti-A035 antibody (C4 PET); test: peptide competition assay in 6% BSA
[38] = molecular target: anti-A004 antibody (ERK1 PET); test: peptide competition assay in 6% BSA

- IC50 [1]: 6 nM
B1: A005 peptide (ERK1), …-NH2 (peptide)
peptide: CVAEEPFTFDMELDD-NH2

- IC50 [2]: 3 nM
B2: A002 peptide (TGFbeta1), Ac-… (peptide)
peptide: Ac-PQALEPLPIVYYVGRC

- IC50 [3]: 8 nM
B3: A003 peptide (TGFbeta1), …-NH2 (peptide)
peptide: CYIWSLDTQYSK-NH2

- IC50 [4]: 8 nM
B4: A044 peptide (Fibronectin), …-NH2 (peptide)
peptide: CHEGGQSYK-NH2

- IC50 [5]: 6 nM
B5: A008 peptide (ERK2), …-NH2 (peptide)
peptide: CDPSDEPIAEAPFK-NH2

- IC50 [6]: 8 nM
B6: A022 peptide (PSA), …-NH2 (peptide)
peptide: CDLPTQEPALG-NH2

- IC50 [7]: 4 nM
B7: A020 peptide (Troponin I), Ac-… (peptide)
peptide: Ac-NIDALSGMEGRC

- IC50 [8]: 6 nM
B8: A006 peptide (ERK1), Ac-… (peptide)
peptide: Ac-IADPEHDHTGC

- IC50 [9]: 23 nM
B9: A011 peptide (MEK1), …-NH2 (peptide)
peptide: CGTSSAETNLEALQK-NH2

- IC50 [10]: 4 nM
B10: A007 peptide (ERK2), Ac-… (peptide)
peptide: Ac-IEVEQALAHPYLEQC

- IC50 [11]: 5 nM
B11: A031 peptide (C3), …-NH2 (peptide)
peptide: CHYLDETEQWEK-NH2

- IC50 [12]: 8 nM
B12: A023 peptide (PSA), …-NH2 (peptide)
peptide: CGSIEPEEFLTPK-NH2

- IC50 [13]: 31 nM
B13: A009 peptide (ERK2), Ac-… (peptide)
peptide: Ac-VADPDHDHTGC

- IC50 [14]: 4 nM
B14: A016 peptide (Thyroglobulin), …-NH2 (peptide)
peptide: CDEAGQELEGMR-NH2

- IC50 [15]: 20 nM
B15: A046 peptide (Fibronectin), …-NH2 (peptide)
peptide: CTTQNYDADQK-NH2

- IC50 [16]: 0.5 nM
B16: A028 peptide (IL-1beta), …-NH2 (peptide)
peptide: CENMPVFLGGTK-NH2

- IC50 [17]: 5 nM
B17: A027 peptide (IL-1beta), …-NH2 (peptide)
peptide: CLEFESAQFPNWY-NH2

- IC50 [18]: 10 nM
B18: A012 peptide (Thyroglobulin), Ac-… (peptide)
peptide: Ac-GGQSAESEEEELC

- IC50 [19]: 8 nM
B19: A013 peptide (Thyroglobulin), Ac-… (peptide)
peptide: Ac-ELAETGLELLC

- IC50 [20]: 10 nM
B20: A047 peptide (Fibronectin), Ac-… (peptide)
peptide: Ac-VDVIPVNLPGEHGQRC

- IC50 [21]: 1000 nM
B21: CRP-derived 8-mer PET YEVQGEVF (peptide)
peptide: YEVQGEVF

- IC50 [22]: 10 nM
B22: A017 peptide (Troponin I), Ac-… (peptide)
peptide: Ac-AYATEPHAKC

- IC50 [23]: 4 nM
B23: A015 peptide (Thyroglobulin), …-NH2 (peptide)
peptide: CDFSTPLAHFDLR-NH2

- IC50 [24]: 36 nM
B24: A010 peptide (MEK1), Ac-… (peptide)
peptide: Ac-PTPIQLNPAPDGC

- IC50 [25]: 5 nM
B25: A014 peptide (Thyroglobulin), …-NH2 (peptide)
peptide: CEIYDTIFAGLD-NH2

- IC50 [26]: 4 nM
B26: A043 peptide (CRP), …-NH2 (peptide)
peptide: CYEVQGEVFTK-NH2

- IC50 [27]: 8 nM
B27: A026 peptide (IL-1beta), Ac-… (peptide)
peptide: Ac-PTLQLESVDPKC

- IC50 [28]: 0.5 nM
B28: A024 peptide (IL-1beta), …-NH2 (peptide)
peptide: CNEDDLFFEADGPK-NH2

- IC50 [29]: 0.8 nM
B29: A001 peptide (TGFbeta1), Ac-… (peptide)
peptide: Ac-ALYNQHNPGASAAPC

- IC50 [30]: 0.5 nM
B30: A037 peptide (C9), …-NH2 (peptide)
peptide: CTEHYEEQIEAFK-NH2

- IC50 [31]: 15 nM
B31: A049 peptide (FactorXII), …-NH2 (peptide)
peptide: CVAGWGHQFEGAEEY-NH2

- IC50 [32]: 0.4 nM
B32: A039 peptide (C9), Ac-… (peptide)
peptide: Ac-PWNVASLIYETKC

- IC50 [33]: 4 nM
B33: A034 peptide (C4), …-NH2 (peptide)
peptide: CQTDQPIYNPGQR-NH2

- IC50 [34]: 8 nM
B34: A021 peptide (PSA), Ac-… (peptide)
peptide: Ac-LSEPAELTDAVKC

- IC50 [35]: 1 nM
B35: A045 peptide (Fibronectin), …-NH2 (peptide)
peptide: CTFYQIGDSWEK-NH2

- IC50 [36]: 5 nM
B36: A025 peptide (IL-1beta), Ac-… (peptide)
peptide: Ac-SLVMSGPYELKC

- IC50 [37]: 4 nM
B37: A035 peptide (C4), …-NH2 (peptide)
peptide: CEANEDYEDYEYDE-NH2

- IC50 [38]: 25 nM
B38: A004 peptide (ERK1), Ac-… (peptide)
peptide: Ac-ITVEEALAHPYLEQC
